# According to the MegaScale stability set (Tsuboyama et al. 2023):
# B1: HHH_rd2_0155 (parent)
# chain: PPDDERKKAEKAARSGNEEKAREILERLGYSEDEARELAKRLR
# Variants of: B1
# Test: folding stability dG (cDNA display proteolysis); higher = more stable
# Conditions: PBS, room temperature
row,Variant,folding stability dG [kJ/mol]
1,PPDDERKKAEKAARSGNEEKAREILERLGYSEDEARELAGRLR [K40G],6.03
2,PPDDERKKAEKAARSGNEEKAREILERLGYSEDEARELAQRLR [K40Q],7.7
3,PPDDERKKAEKAARSGNEEKAREILERLGYSEDEARELADRLR [K40D],5.46
4,PPDDERKKAEKAARSGNEEKAREILERLGYSEDEARELARRLR [K40R],10.5
5,PPDDERKKAEKAARSGNEEKAREILERLGYSEDEARELALRLR [K40L],7.56
6,PPDDERKKAEKAARSGNEEKAREILERLGYSEDEARELAARLR [K40A],8.63
7,PPDDERKKAEKAARSGNEEKAREILERLGYSEDEARELAFRLR [K40F],7.52
8,PPDDERKKAEKAARSGNEEKAREILERLGYSEDEARELAHRLR [K40H],10
9,PPDDERKKAEKAARSGNEEKAREILERLGYSEDEARELANRLR [K40N],7.49
10,PPDDERKKAEKAARSGNEEKAREILERLGYSEDEARELAPRLR [K40P],0.418
11,PPDDERKKAEKAARSGNEEKAREILERLGYSEDEARELAERLR [K40E],7.37
12,PPDDERKKAEKAARSGNEEKAREILERLGYSEDEARELAMRLR [K40M],9.28
13,PPDDERKKAEKAARSGNEEKAREILERLGYSEDEARELAIRLR [K40I],6.74
14,PPDDERKKAEKAARSGNEEKAREILERLGYSEDEARERAKRLR [L38R],2.37
15,PPDDERKKAEKAARSGNEEKAREILERLGYSEDEAREFAKRLR [L38F],6.32
16,PPDDERKKAEKAARSGNEEKAREILERLGYSEDEAREDAKRLR [L38D],-3.52
17,PPDDERKKAEKAARSGNEEKAREILERLGYSEDEAREVAKRLR [L38V],4.68
18,PPDDERKKAEKAARSGNEEKAREILERLGYSEDEAREKAKRLR [L38K],3.16
19,PPDDERKKAEKAARSGNEEKAREILERLGYSEDEAREYAKRLR [L38Y],7
20,PPDDERKKAEKAARSGNEEKAREILERLGYSEDEARENAKRLR [L38N],-0.259
21,PPDDERKKAEKAARSGNEEKAREILERLGYSEDEAREGAKRLR [L38G],-0.724
22,PPDDERKKAEKAARSGNEEKAREILERLGYSEDEAREIAKRLR [L38I],8.51
23,PPDDERKKAEKAARSGNEEKAREILERLGYSEDEARESAKRLR [L38S],0.54
24,PPDDERKKAEKAARSGNEEKAREILERLGYSEDEAREWAKRLR [L38W],6.25

row,Variant,folding stability dG [kJ/mol]
1,PPDDERKKAEKAARSGNEEKAREILERLGYSEDEAREAAKRLR [L38A],3.87
2,PPDDERKKAEKAARSGNEEKAREILERLGYSEDEAREMAKRLR [L38M],8.74
3,PPDDERKKAEKAARSGNEEKAREILERLGYSEDEAREHAKRLR [L38H],2.87
4,PPDDERKKAEKAARSGNEEKAREILERLGYSEDEARETAKRLR [L38T],4.56
5,PPDDERKKAEKAARSGNEEKAREILERLGYSEDEAREQAKRLR [L38Q],3.03
6,PPDDERKKAEKAARSGNEEKAREILERLGYSEDEAREEAKRLR [L38E],6.1
7,PPDDERKKAEKAARSGNEEKAREILERLGYSEDEARELYKRLR [A39Y],6.95
8,PPDDERKKAEKAARSGNEEKAREILERLGYSEDEARELSKRLR [A39S],4.26
9,PPDDERKKAEKAARSGNEEKAREILERLGYSEDEARELIKRLR [A39I],11.5
10,PPDDERKKAEKAARSGNEEKAREILERLGYSEDEARELVKRLR [A39V],9.74
11,PPDDERKKAEKAARSGNEEKAREILERLGYSEDEARELCKRLR [A39C],9.35
12,PPDDERKKAEKAARSGNEEKAREILERLGYSEDEARELTKRLR [A39T],5.06
13,PPDDERKKAEKAARSGNEEKAREILERLGYSEDEARELEKRLR [A39E],2.72
14,PPDDERKKAEKAARSGNEEKAREILERLGYSEDEARELFKRLR [A39F],6.37
15,PPDDERKKAEKAARSGNEEKAREILERLGYSEDEARELDKRLR [A39D],-0.837
16,PPDDERKKAEKAARSGNEEKAREILERLGYSEDEARELNKRLR [A39N],1.09
17,PPDDERKKAEKAARSGNEEKAREILERLGYSEDEARELWKRLR [A39W],4.24
18,PPDDERKKAEKAARSGNEEKAREILERLGYSEDEARELKKRLR [A39K],0.77
19,PPDDERKKAEKAARSGNEEKAREILERLGYSEDEARELPKRLR [A39P],-1.51
20,PPDDERKKAEKAARSGNEEKAREILERLGYSEDEARELHKRLR [A39H],2.95
21,PPDDERKKAEKAARSGNEEKAREILERLGYSEDEARELQKRLR [A39Q],1.53
22,PPDDERKKAEKAARSGNEEKAREILERLGYSEDEARELLKRLR [A39L],9.86
23,PPDDERKKAEKAARSGNEEKAREILERLGYSEDEARELMKRLR [A39M],7.31
24,PPDDERKKAEKAARSGNEEKAREILERLGYSEDEARELRKRLR [A39R],3.33

row,Variant,folding stability dG [kJ/mol]
1,PPDDERKKAEKAARSGNEEKAREILERLGYSEDEARELGKRLR [A39G],1.66
2,PPDDERKKAEKAARSGNEEKAREILERLGYSEDEARPLAKRLR [E37P],-1.89
3,PPDDERKKAEKAARSGNEEKAREILERLGYSEDEARDLAKRLR [E37D],7.22
4,PPDDERKKAEKAARSGNEEKAREILERLGYSEDEARQLAKRLR [E37Q],8.77
5,PPDDERKKAEKAARSGNEEKAREILERLGYSEDEARHLAKRLR [E37H],7.75
6,PPDDERKKAEKAARSGNEEKAREILERLGYSEDEARMLAKRLR [E37M],9.02
7,PPDDERKKAEKAARSGNEEKAREILERLGYSEDEARWLAKRLR [E37W],10.1
8,PPDDERKKAEKAARSGNEEKAREILERLGYSEDEARFLAKRLR [E37F],8.29
9,PPDDERKKAEKAARSGNEEKAREILERLGYSEDEARILAKRLR [E37I],9.25
10,PPDDERKKAEKAARSGNEEKAREILERLGYSEDEARALAKRLR [E37A],9.5
11,PPDDERKKAEKAARSGNEEKAREILERLGYSEDEARCLAKRLR [E37C],9.88
12,PPDDERKKAEKAARSGNEEKAREILERLGYSEDEARNLAKRLR [E37N],7.63
13,PPDDERKKAEKAARSGNEEKAREILERLGYSEDEARYLAKRLR [E37Y],9.07
14,PPDDERKKAEKAARSGNEEKAREILERLGYSEDEARRLAKRLR [E37R],9.78
15,PPDDERKKAEKAARSGNEEKAREILERLGYSEDEARTLAKRLR [E37T],8.14
16,PPDDERKKAEKAARSGNEEKAREILERLGYSEDEARVLAKRLR [E37V],8.51
17,PPDDERKKAEKAARSGNEEKAREILERLGYSEDEARSLAKRLR [E37S],8.58
18,PPDDERKKAEKAARSGNEEKAREILERLGYSEDEARLLAKRLR [E37L],9.08
19,PPDDERKKAEKAARSGNEEKAREILERLGYSEDEARKLAKRLR [E37K],8.79
20,PPDDERKKAEKAARSGNEEKAREILERLGYSEDEARGLAKRLR [E37G],5.75
21,PPDDERKKAEKAARSGNEEKAREILERLGYSEDESRELAKRLR [A35S],5.25
22,PPDDERKKAEKAARSGNEEKAREILERLGYSEDEMRELAKRLR [A35M],4.25
23,PPDDERKKAEKAARSGNEEKAREILERLGYSEDELRELAKRLR [A35L],4.26
24,PPDDERKKAEKAARSGNEEKAREILERLGYSEDEKRELAKRLR [A35K],2.47

row,Variant,folding stability dG [kJ/mol]
1,PPDDERKKAEKAARSGNEEKAREILERLGYSEDEVRELAKRLR [A35V],4.14
2,PPDDERKKAEKAARSGNEEKAREILERLGYSEDEYRELAKRLR [A35Y],3.79
3,PPDDERKKAEKAARSGNEEKAREILERLGYSEDEGRELAKRLR [A35G],2.53
4,PPDDERKKAEKAARSGNEEKAREILERLGYSEDETRELAKRLR [A35T],4.15
5,PPDDERKKAEKAARSGNEEKAREILERLGYSEDEWRELAKRLR [A35W],4.2
6,PPDDERKKAEKAARSGNEEKAREILERLGYSEDEQRELAKRLR [A35Q],3.68
7,PPDDERKKAEKAARSGNEEKAREILERLGYSEDEPRELAKRLR [A35P],-1.03
8,PPDDERKKAEKAARSGNEEKAREILERLGYSEDEERELAKRLR [A35E],0.59
9,PPDDERKKAEKAARSGNEEKAREILERLGYSEDEIRELAKRLR [A35I],5.95
10,PPDDERKKAEKAARSGNEEKAREILERLGYSEDEFRELAKRLR [A35F],4.14
11,PPDDERKKAEKAARSGNEEKAREILERLGYSEDEHRELAKRLR [A35H],3.05
12,PPDDERKKAEKAARSGNEEKAREILERLGYSEDENRELAKRLR [A35N],2.66
13,PPDDERKKAEKAARSGNEEKAREILERLGYSEDERRELAKRLR [A35R],2.36
14,PPDDERKKAEKAARSGNEEKAREILERLGYSEDEDRELAKRLR [A35D],1.59
15,PPDDERKKAEKAARSGNEEKAREILERLGYSEDEASELAKRLR [R36S],5.31
16,PPDDERKKAEKAARSGNEEKAREILERLGYSEDEAMELAKRLR [R36M],6.57
17,PPDDERKKAEKAARSGNEEKAREILERLGYSEDEAPELAKRLR [R36P],-0.69
18,PPDDERKKAEKAARSGNEEKAREILERLGYSEDEACELAKRLR [R36C],4
19,PPDDERKKAEKAARSGNEEKAREILERLGYSEDEAAELAKRLR [R36A],6.52
20,PPDDERKKAEKAARSGNEEKAREILERLGYSEDEAHELAKRLR [R36H],4.87
21,PPDDERKKAEKAARSGNEEKAREILERLGYSEDEALELAKRLR [R36L],6.32
22,PPDDERKKAEKAARSGNEEKAREILERLGYSEDEAKELAKRLR [R36K],7.1
23,PPDDERKKAEKAARSGNEEKAREILERLGYSEDEAEELAKRLR [R36E],5.14
24,PPDDERKKAEKAARSGNEEKAREILERLGYSEDEAGELAKRLR [R36G],3.44

row,Variant,folding stability dG [kJ/mol]
1,PPDDERKKAEKAARSGNEEKAREILERLGYSEDEAIELAKRLR [R36I],6.55
2,PPDDERKKAEKAARSGNEEKAREILERLGYSEDEAQELAKRLR [R36Q],5.6
3,PPDDERKKAEKAARSGNEEKAREILERLGYSEDEATELAKRLR [R36T],5.5
4,PPDDERKKAEKAARSGNEEKAREILERLGYSEDEADELAKRLR [R36D],3.59
5,PPDDERKKAEKAARSGNEEKAREILERLGYSEDEANELAKRLR [R36N],4.76
6,PPDDERKKAEKAARSGNEEKAREILERLGYSEDEAVELAKRLR [R36V],5.26
7,PPDDERKKAEKAARSGNEEKAREILERLGYSEDEAFELAKRLR [R36F],6.51
8,PPDDERKKAEKAARSGNEEKAREILERLGYSEDEAWELAKRLR [R36W],7.01
9,PPDDERKKAEKAARSGNEEKAREILERLGYSEDEAYELAKRLR [R36Y],6.87
10,PPDDERKKAEKAARSGNEEKAREILERLGYSEDRARELAKRLR [E34R],5.87
11,PPDDERKKAEKAARSGNEEKAREILERLGYSEDIARELAKRLR [E34I],6.03
12,PPDDERKKAEKAARSGNEEKAREILERLGYSEDYARELAKRLR [E34Y],6.33
13,PPDDERKKAEKAARSGNEEKAREILERLGYSEDWARELAKRLR [E34W],4.54
14,PPDDERKKAEKAARSGNEEKAREILERLGYSEDNARELAKRLR [E34N],5.05
15,PPDDERKKAEKAARSGNEEKAREILERLGYSEDVARELAKRLR [E34V],5.82
16,PPDDERKKAEKAARSGNEEKAREILERLGYSEDLARELAKRLR [E34L],5.66
17,PPDDERKKAEKAARSGNEEKAREILERLGYSEDSARELAKRLR [E34S],5.23
18,PPDDERKKAEKAARSGNEEKAREILERLGYSEDPARELAKRLR [E34P],1.83
19,PPDDERKKAEKAARSGNEEKAREILERLGYSEDTARELAKRLR [E34T],5.6
20,PPDDERKKAEKAARSGNEEKAREILERLGYSEDMARELAKRLR [E34M],6.67
21,PPDDERKKAEKAARSGNEEKAREILERLGYSEDQARELAKRLR [E34Q],7.58
22,PPDDERKKAEKAARSGNEEKAREILERLGYSEDKARELAKRLR [E34K],5.24
